The values below come from the supplement of paper PMC9170038.

The subject of the series is K4 kissing-loop RNA reporter. Briefly: apparent KD of K4 kissing-loop reporter; higher = weaker reporter binding. The conditions noted are these: Eterna round: R107. The procedure: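 RNA-MaP round R107: designed RNA switches with theophylline, tryptophan, arginine or FMN aptamers are transcribed on-chip within common flanks. They are titrated with a labelled K4 kissing-loop RNA reporter in RNA-MaP buffer (100 mM Tris pH 7.5, 80 mM KCl, 4 mM MgCl2), without ligand or with the indicated ligand. Median apparent KD per design.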

Setting [1] is: input ligand: theophylline 20 uM.
Setting [2] is: input ligand: tryptophan 2.4 mM.
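Further: bound reporter read as fluorescence of individual clusters on recovered sequencing chips by microscopy, with normalized cluster intensities fitted with a binding model.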

On to “AACGGCCAGUCGGCCGCCACUCAAAGCAGUGAUGUUGCUAACUUUCUAAAAGAGUGAUGUUCUUAGAGGACCGGGACUAAUGUAA [Exclusion Tryptophan B GF 2]”, for which the “apparent KD of K4 kissing-loop reporter” value (input ligand: FMN 200 uM) came out at 115 nM; the “apparent KD of K4 kissing-loop reporter” value (input ligand: arginine 13.2 mM) is 147 nM; the “apparent KD of K4 kissing-loop reporter” value (input ligand: none) is 125 nM; the “apparent KD of K4 kissing-loop reporter” value under setting [1] worked out at 143 nM; the “apparent KD of K4 kissing-loop reporter” value under setting [2] was 102 nM.

As for “AACGGCCAGUCGGCCGCCACUCGAUGCAGUGAUGUUGCUAACUUUCUAAAAGAGUGAUGUUCAUGGAGGACCGGGACUAGUGUAA [#30 K4 Tryptophan B Exclusion]”, the “apparent KD of K4 kissing-loop reporter” value (input ligand: FMN 200 uM) was determined as 317 nM; the “apparent KD of K4 kissing-loop reporter” value (input ligand: arginine 13.2 mM) worked out at 244 nM; the “apparent KD of K4 kissing-loop reporter” value (input ligand: none) came out at 291 nM; the “apparent KD of K4 kissing-loop reporter” value under setting [1] was 255 nM; the “apparent KD of K4 kissing-loop reporter” value under setting [2] turned out to be 241 nM.

In the case of “AACGUUUUGAGAAGGAGCGCGAUAAGCAGUGAUGUUGCUAUAAUUCUAUUUCUAUUUAAUUCGCAGGUAGGUCGCUCAAUACGUA [JR_SSArginiB_Sub019]”, the “apparent KD of K4 kissing-loop reporter” value runs as follows: (input ligand: FMN 200 uM) 136 nM; (input ligand: arginine 13.2 mM) 134 nM; (input ligand: none) 134 nM; under setting [1], 138 nM; under setting [2], 119 nM.

For “AACUGUCAAGGACAACAUUACUGAGGUGAUACCAGCAUCGAAAGAUGCCCUUGGCAGCACCAACUUGCAGUGAUGUUGCAAGUAA [Design6]”, the “apparent KD of K4 kissing-loop reporter” value reads like this: (input ligand: FMN 200 uM) 212 nM; (input ligand: arginine 13.2 mM) 184 nM; (input ligand: none) 212 nM; under setting [1], 279 nM; under setting [2], 214 nM.

In the case of “AAGAGGUAGGCGGCCGCCACUAGUUGUGAACACAUACGAGCCAGUGAUGUUGGUAUGGUGGGCGGUAGGACCGGGCCUACCUGAA [Exclusion - Tryptophan B (Freestyle 18)]”, the “apparent KD of K4 kissing-loop reporter” value stood at 427 nM (input ligand: FMN 200 uM); 481 nM (input ligand: arginine 13.2 mM); 496 nM (input ligand: none); 454 nM under setting [1]; 475 nM under setting [2].

Consider “AAGCAGUCACUCGAAGCCAUCGAAGAUGGCCGAGGACCGGUACGGCCGCCACUCGGAGUGAUGUUCCGAAGACUGCAAAAUAAAA”, for which the “apparent KD of K4 kissing-loop reporter” value is 313 nM (input ligand: FMN 200 uM); 303 nM (input ligand: arginine 13.2 mM); 355 nM (input ligand: none); 363 nM under setting [1]; 306 nM under setting [2].

As for “AAGGAAUGUAUAGAUUAUAUACAUUCAACAGAGGAUAUGCAUUAUUGCAGAAGGCUGAAUGCAGUGAUGUUGCAAUAAUUAUUUA [#09 K4 FMN A Same State]”, the “apparent KD of K4 kissing-loop reporter” value (input ligand: FMN 200 uM) came to 60.5 nM; the “apparent KD of K4 kissing-loop reporter” value (input ligand: arginine 13.2 mM) turned out to be 199 nM; the “apparent KD of K4 kissing-loop reporter” value (input ligand: none) is 181 nM; the “apparent KD of K4 kissing-loop reporter” value under setting [1] stood at 291 nM; the “apparent KD of K4 kissing-loop reporter” value under setting [2] stood at 129 nM.

With “AAGGUAUCACCACAACAUCACUAAGGUGAUACCAGCAUCGAAAGAUGCCCUUGGCAGCACCAACUUGCAGUGAUGUUGCAAGUAA [(T)'-(H)'-(T1)-(T2)-(H1)-(H2)_Design9]”, the “apparent KD of K4 kissing-loop reporter” value is, setting by setting: (input ligand: FMN 200 uM) 417 nM; (input ligand: arginine 13.2 mM) 310 nM; (input ligand: none) 365 nM; under setting [1], 438 nM; under setting [2], 366 nM.

As to “AAGUCUCGUUAAUUCGAGGUUACGAUCGAUACCAGUAGCGAGAGGUACCCUUGGCAGCGAAGUGAGUGAUGUUCAUGAAAGAAGA [KL-XTheoA12]”, the “apparent KD of K4 kissing-loop reporter” value was found to be 78.5 nM (input ligand: FMN 200 uM); 119 nM (input ligand: arginine 13.2 mM); 92.7 nM (input ligand: none); 131 nM under setting [1]; 78 nM under setting [2].

In the case of “AAGUGAUGUUGUAGUGAUGUUGUGAUGUUGCAGGAUAUAUAGUGAUGUAGAAGGGUAUGUACAGUUUUUUUUUUUGAGUGUUGAU [sscsmullin]”, the “apparent KD of K4 kissing-loop reporter” value reads like this: (input ligand: FMN 200 uM) 79.7 nM; (input ligand: arginine 13.2 mM) 36 nM; (input ligand: none) 62.2 nM; under setting [1], 47.8 nM; under setting [2], 66.2 nM.

“AAGUGAUGUUGUAGUGAUGUUGUGAUGUUGCAGGAUAUAUAGUGAUGUAGAAGGGUAUGUGCAGUUUUCUUUUUUGAGUGUUGAU [aavamullin]”: the “apparent KD of K4 kissing-loop reporter” value (input ligand: FMN 200 uM) amounted to 72.1 nM; the “apparent KD of K4 kissing-loop reporter” value (input ligand: arginine 13.2 mM) was 30.8 nM; the “apparent KD of K4 kissing-loop reporter” value (input ligand: none) was 57.1 nM; the “apparent KD of K4 kissing-loop reporter” value under setting [1] is 43.7 nM; the “apparent KD of K4 kissing-loop reporter” value under setting [2] was 56.9 nM.

On to “AAUAAAAUCACGGCCGCCACUGAAUAAUUGGUAAGUAGUGAUGUUACUUUACUUUUCUUAUUUAACAGGACCGGGUGAAUAUUUA [JR_ExcTryptoB_Sub009]”, for which the “apparent KD of K4 kissing-loop reporter” value runs as follows: (input ligand: FMN 200 uM) 104 nM; (input ligand: arginine 13.2 mM) 83.4 nM; (input ligand: none) 98.5 nM; under setting [1], 88.2 nM; under setting [2], 123 nM.

Regarding “AAUAAACAGUCGGCCGCCACUUCAAUAGACUUAUUAUUGAAUGGUGUAGUUCUUCAGUGAUGUUGAAGGACCGGGACUUUCGCGC [Isesator]”, the “apparent KD of K4 kissing-loop reporter” value is, setting by setting: (input ligand: FMN 200 uM) 157 nM; (input ligand: arginine 13.2 mM) 134 nM; (input ligand: none) 145 nM; under setting [1], 139 nM; under setting [2], 158 nM.

Take “AAUAAGGAGUGAUGUUCCAAGUGAUGUUAACGAGGACCGGUACGGCCGCCACUCGAUACGGCCGGAAAAUAAAAUAAAAUAAAAU [Same State - Tryptophan A (Freestyle 1)]”: the “apparent KD of K4 kissing-loop reporter” value runs as follows: (input ligand: FMN 200 uM) 103 nM; (input ligand: arginine 13.2 mM) 119 nM; (input ligand: none) 134 nM; under setting [1], 120 nM; under setting [2], 124 nM.

“AAUAAGGUCGCCGAUACCAGCGCAGGCAGAGCAAAGCUCUGCCAAGUAGUGAUGUUACUGCGCCCUUGGCAGCGGUGGCACGACC [Omei KL Theo B SS C v3]”: the “apparent KD of K4 kissing-loop reporter” value (input ligand: FMN 200 uM) turned out to be 196 nM; the “apparent KD of K4 kissing-loop reporter” value (input ligand: arginine 13.2 mM) came to 157 nM; the “apparent KD of K4 kissing-loop reporter” value (input ligand: none) worked out at 163 nM; the “apparent KD of K4 kissing-loop reporter” value under setting [1] was 123 nM; the “apparent KD of K4 kissing-loop reporter” value under setting [2] amounted to 167 nM.

As for “AAUAUAUAGUGAAGGAGCGCGAUAAGCAGUGAUGUUGCUUUGUUAUGAUUGUCUAUUUUUACGCAGGUAGGUCGCACUAUAUAUA [JR_ExcArginiB_Sub020]”, the “apparent KD of K4 kissing-loop reporter” value was 165 nM (input ligand: FMN 200 uM); 104 nM (input ligand: arginine 13.2 mM); 126 nM (input ligand: none); 109 nM under setting [1]; 122 nM under setting [2].

“AAUGUACAAGUGAUGUUUGUACUUUCCGAAGGAGCGUCUAAUAAGACAGGUAGGUCGCGGAUUAUCAUAAUUAUCAGGUUUUCAA [JR_SSArginiA_Sub015]”: the “apparent KD of K4 kissing-loop reporter” value is 98.8 nM (input ligand: FMN 200 uM); 88.8 nM (input ligand: arginine 13.2 mM); 92.4 nM (input ligand: none); 89.1 nM under setting [1]; 90.9 nM under setting [2].

With “AAUUAAUGUAUAGAUUAUAUACAUUAAUCAGAGGAUAUGCUUUGUUGCAGAAGGCUGAAUGCAGUGAUGUUGCAAUUUUAAUUUA [JR_SSFMNA_Sub005]”, the “apparent KD of K4 kissing-loop reporter” value was 50.8 nM (input ligand: FMN 200 uM); 99.8 nM (input ligand: arginine 13.2 mM); 54.7 nM (input ligand: none); 87.3 nM under setting [1]; 46.7 nM under setting [2].

Consider “AAUUGAGUGACGGCCGCCACUAGAGUGAUUUUUUUGUUUGAGUGAUGUUUUGAUGUUUGAUUUUGUAGGACCGGGUUGAGUGAUG [qqxzmullin]”, for which the “apparent KD of K4 kissing-loop reporter” value reads like this: (input ligand: FMN 200 uM) 305 nM; (input ligand: arginine 13.2 mM) 306 nM; (input ligand: none) 357 nM; under setting [1], 528 nM; under setting [2], 247 nM.

Consider “AAUUUCGGAUACAUCAUAGUUUUAAUUCGGCGAGGACCGGUACGGCCGCCACUCGGUAUAGACGCGUCCAGUGAUGUUGGCGCUU [theeternabot_sameState_KL_Trp_A_45]”, for which the “apparent KD of K4 kissing-loop reporter” value (input ligand: FMN 200 uM) came out at 262 nM; the “apparent KD of K4 kissing-loop reporter” value (input ligand: arginine 13.2 mM) turned out to be 193 nM; the “apparent KD of K4 kissing-loop reporter” value (input ligand: none) came out at 237 nM; the “apparent KD of K4 kissing-loop reporter” value under setting [1] worked out at 260 nM; the “apparent KD of K4 kissing-loop reporter” value under setting [2] came to 223 nM.

On to “ACACUAUCGUCAUAGACGGUAGUGAACACACAGGAUAUGAGUGAUGUUAGAAGGGUGUAAGACUGUAUCGAAUAGAUACAGUCAA [FmnA 7 #K4BetweenAptamer #OpenEnded]”, for which the “apparent KD of K4 kissing-loop reporter” value (input ligand: FMN 200 uM) is 400 nM; the “apparent KD of K4 kissing-loop reporter” value (input ligand: arginine 13.2 mM) was 142 nM; the “apparent KD of K4 kissing-loop reporter” value (input ligand: none) turned out to be 204 nM; the “apparent KD of K4 kissing-loop reporter” value under setting [1] was 192 nM; the “apparent KD of K4 kissing-loop reporter” value under setting [2] came to 190 nM.
